# Experimental data as given in PMC5481561, “The crystal structure of mammalian inositol 1,3,4,5,6-pentakisphosphate 2-kinase reveals a new zinc-binding site and key features for protein function” (The Journal of Biological Chemistry, 2017).
# Residue numbers refer to the chain shown, from its start. Names may count otherwise.
# B1: LSLt-ΔC-mIP5 2-K (Mus musculus) (protein)
# chain: MEEGKMDENEWSYHGEGNKSLVVAHAQRCVVLRFLKFPPNKKKTSEEILQHLQNIVDFGKNVMKDFLGENYVHCGEVVQLPLEFVKQLCLKIQCERPESRCDKDLDTFSGYAMCLPNLTRLQTFHFAEHRPILCVEIKPKCGFIPFSNDVTHEMKHKVCRYCMHQHLKVATGKWKKISKYCPLDLYSGNKQRMHFALRSLLQETQNNLRIFKNGELIYGCGDARSPVADLKELAHHLKPFFFPSNGLASGPHCTKAVIRELVHVITRVLLSSSEKARAGALRLGLQGPRVCEASPFSRSLHNQGKNTSEHSGLPKGCLLYKTLQVQMLDQLDIEGLYPLYKRVEQYLEEFPEERKTLQIDGPYDEVFYQKLLDLSTEDDGTVAFALTKVQQYRVAMTAKDCSIMIALSPCLQGTSSDQRPVIPSSRSRLAFSVSVLDLDLKPYESIPHQYKLDSKIVNYYSKTVHAKD
# notes: lacks the 21 C-terminal residues (stop codon at 469); LSLt (Laetiporus sulphureus lectin) tag kept; E. coli BL21 Star (DE3)
# B2: LSLt-ΔC-mIP5 2-K (Mus musculus; K173A) (protein)
# chain: B1 chain with K173A
# notes: as for B1
# Legend:
# [1] = substrate: O=P(O)(O)O[C@@H]1[C@@H](OP(=O)(O)O)[C@H](OP(=O)(O)O)[C@H](O)[C@H](OP(=O)(O)O)[C@H]1OP(=O)(O)O; assay: HPLC of IP5-dependent ATP to ADP conversion; format: biochemical, Mus musculus; conditions: 50 μM ATP, 1 mM MgCl2, 20 mM Hepes, pH 7.3, 0.2–5 μM IP5
# [2] = substrate: O=P(O)(O)O[C@@H]1[C@@H](OP(=O)(O)O)[C@H](OP(=O)(O)O)[C@H](O)[C@H](OP(=O)(O)O)[C@H]1OP(=O)(O)O; assay: HPLC of IP5-dependent ATP to ADP conversion; format: biochemical, Mus musculus; conditions: 50 μM ATP, 1 mM MgCl2, 20 mM Hepes, pH 7.3, 0.2–5 μM IP5; remark: listed apart in the source
# From the text: HPLC of IP5-dependent ATP to ADP conversion on LSLt-ΔC-mIP5 2-K | showing very similar kinetic parameters (Fig. 3A)
Protein,Km [1],Km [2]
B1,0.29 µM,–
B2,–,0.2729 ± 0.0895 µM
